Source: article PMC7954794, “Protein context shapes the specificity of SH3 domain-mediated interactions in vivo” (Nature Communications, 2021)

B1: YNL229C_1 (protein, UniProt P23202 2-354, looked up)
Transcriptional regulator URE2: MNNNGNQVSNLSNALRQVNIGNRNSNTTTDQSNINFEFSTGVNNNNNNNSSSNNNNVQNNNSGRNGSQNNDNENNIKNTLEQHRQQQQAFSDMSHVEYSRITKFFQEQPLEGYTLFSHRSAPNGFKVAIVLSELGFHYNTIFLDFNLGEHRAPEFVSVNPNARVPALIDHGMDNLSIWESGAILLHLVNKYYKETGNPLLWSDDLADQSQINAWLFFQTSGHAPMIGQALHFRYFHSQKIASAVERYTDEVRRVYGVVEMALAERREALVMELDTENAAAYSAGTTPMSQSRFFDYPVWLVGDKLTIADLAFVPWNNVVDRIGINIKIEFPEVYKWTKHMMRRPAVIKALRGE
B2: YLR144C_1 (protein, UniProt Q12168 1-779, looked up)
Glucan …: MCYSRQAIPPPVPNRPGGTTNRGPPPLPPRANVQPPVCSSENSSKPRENRVAGESLRTPSSSNPLADSQVNSDNIFQSPVLSNLKAPPSVFNKVQHPVPKPNIDDQSVDPLETNKFYTNMLLDDNTQPIWTHPYSIWFSRDPELFGLAANHTLASQRVFDTTTNPPRFYFNPTNIKSFVFKAREFVSSNDIKLEFRDMKHMSMCLLMSLSSSQFIEFPLVQGMGFVTAIYHDLGFELRSAVGFRSLERISVNERYGKYNIQLENNRNWILYLTSPDYSFPQDFQISLLDSNTIISSHKINGLICQLSADSVPSIDMAAGCYPVYCDLSGQTVDEHFTNYRFNYTVAGYSQSGTTLMYALPHHKAAFTPEMQEREIASSLDSTVKGLMTGYLTNSFDMQVQVPQELGFEPVALSLNKKADYSQEKLSKIREAAVQEVQLSDPQQESNIDSMYFSGKILAKYAWILYVTHYILHDENLTKELLSKLTIAMERFISNQQVLPLNYDVSWKGIISSGSSSQDFGNSYYNDHHFHYSYHVITAAIISLVDSDLSGVTNNSWLENNRDWVECLIRDYSGVDNDDPYFPQFRSFDWFNGHSWAKGLFPSGDGKDEESTSEDVNSCYAIKLWGLVTGNSKLTDIANLQLGIMRNVFQSYFLYESNNTVQPKEFIGNKVSGILFENKIDHATYFGMEPQYIHMIHAIPITSASSWVRTPNFVKEEWEEKMQPIIDQVNDGWKGIIMLNMALLDPKFSYDFFSQPDFNRNFLDNGQSLTWSLAYSGAFS
B3: YNL084C_1 (protein, UniProt P39013 1-349, looked up)
Actin cytoskeleton-regulatory …: MPKLEQFEIKKYWQIFSGLKPIENKVNHDQVLPILYNSKLDSSVLNKIWFLADIDDDDNLDFEEFVICMRLIFDMVNKNISSVPDELPDWLIPGSKVNLIKERKKRKQIENADLPPKKEIKVDWYMSPDDLNQYEKIYNSCAKLTDGTITFNELSTKLSTKFFNISKTDLNKVWSLINPQNLPSIDRDPTFYFIHCLRQRNDLGAEIPASLPNSLAEVCNKKQLSYDLRSSQPPTKRKEEANEVDNLRDNGQNSSSDSSGSNVLSNEDSIKQKYASLTDDQVANMREQLEGLLNYKKSEKTQGGSKLSKRINIRSITDDLDNIEQQVEVLENYLNNKRHELQALQAEIN

System: PPIs identified as affected by the SH3 domain deletions
Experiment: Liquid DHFR-PCA low-throughput validation of PPIs affected by SH3 deletion (Fig. S1D-E)
Format: cell-based, Saccharomyces cerevisiae
Conditions: label = prey, liquid DHFR-PCA, prey _1 = lost, _2 = gained in screen
How it was run: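 Growth at 30 °C was tracked by OD each 15 min over 72 h in agar-free PCA selection medium, starting at 0.1 OD. Cells were diploids selected after mating, first cultured 48 h with NAT and HPH in synthetic complete MSG medium, pH 6.0.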

Molecule	Ratio (Deletedscore / WTscore) (bait LSB1)	Ratio (Deletedscore / WTscore) (bait LSB3)	Ratio (Deletedscore / WTscore) (bait PIN3)	Ratio (Deletedscore / WTscore) (bait MYO3)	Ratio (Deletedscore / WTscore) (bait MYO5)
B1	1.043	–	–	–	–
B2	1.001	0.9902	0.9919	–	–
B3	0.7759	0.8689	–	0.5035	0.7027
